In patent publication US20210155687A1 (published 2021):

Assays:
[1] = target: T1, Human OSM (human); assay: in vivo affinity in serum, estimated with a TMDD model (one-compartment PK plus binding kinetics) from free and total OSM levels in the single ascending dose FTIH study
T1 chain: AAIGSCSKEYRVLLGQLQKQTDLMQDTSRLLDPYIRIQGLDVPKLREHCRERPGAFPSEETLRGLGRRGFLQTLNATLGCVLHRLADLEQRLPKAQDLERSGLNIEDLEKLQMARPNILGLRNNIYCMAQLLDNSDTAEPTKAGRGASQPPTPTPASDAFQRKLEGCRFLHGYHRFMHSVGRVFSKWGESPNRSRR

[2] = target: T1, Human OSM; assay: in vivo affinity estimated from FTIH PK/PD data (rounded restatement of the TMDD estimate)

Kd [1]: 0.568 nM
Kd [2]: ~0.6 nM
B1: mab 1 (antibody)
heavy: SYAMS
light: EVQLVESGGGLVQPGGSLRLSCAASGFTFSSYAMSWVRQAPGKGLEWVATISDGGSFTYYLDNVRGRFTISRDNAKNSLYLQMNSLRAEDTAVYYCARDVGHTTFWYFDVWGRGTLVTVSS
notes: Humanised anti-OSM antibody derived from murine 10G8; also called humanised mab 1 derived from 10G8; Mature H0 (IGHV3_23 CDRH1) heavy chain with Mature L1 light chain
